The values that follow are results of earlier work, collected in paper PMC11076503.

The target of this data set is Mpro (Severe acute respiratory syndrome coronavirus 2) (UniProt P0DTD1).

Take Mpro (from UniProt P0DTD1): the Kd (commonly the equilibrium constant for the complex coming apart) was 7 µM.
